B1: CPXM2 (parent)
chain: TASTKNCMVGYDMGATRCDFTLSK
B2: MLL5 (parent)
chain: HDDGYMICCDKCSVWQHIDCMGID

Variants of: B1
Experiment: protein stability index of a GFP-peptide fusion (GPS, HEK-293T) (PSI 1-6); higher = more stable
Details: c terminus: a fixed tail appended
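Note: lentivirally expressed fusions sorted by FACS into six bins by GFP to DsRed ratio, PSI derived from sequencing read proportions per bin multiplied by bin number.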

Protein stability index of substitutions, site by site:
K5: T 2.35, A 2.3, D 3.25, F 2.25, Q 2.4, H 2.4, I 2.04, C 1.74, V 2.42, Y 1.72, S 2.63, L 2.29, G 2.46, W 1.97, M 2.38, N 2.28, R 1.59, P 3.18, E 3.21
T4: R 1.91, P 2.47, L 1.85, Y 2, D 3.17, S 1.93, K 2.01, N 2.4, Q 2.25, E 2.12, F 1.92, I 2.25, W 1.82, M 2.58, A 2.23, C 2.65, H 2
A2: H 2.26, C 1.64, D 3.75, Y 2.31, I 1.8, S 2.58, F 2.58, K 2.04, R 2.68, W 1.73, G 2.91, N 3.16, L 1.99, V 2.21, Q 2.94, M 2.41, P 3.08, E 3.9, T 2.06
C7: S 3.77, R 3.26, Y 2.71, F 3.21, Q 3.69, P 3.48, K 3.18, W 2.99, M 3.06, A 3.74, N 3.84, V 3.46, E 4.44, H 3.48, G 3.75, L 3.27, I 3.11, D 4, T 3.24
M8: F 2.73, C 1.77, H 2.76, G 2.08, Q 2.62, D 4.13, L 2.14, P 2.06, N 3.95, I 1.62, E 4.05, A 1.88, R 1.35, K 3.26
T1: R 1.92, V 1.61, E 3.37, S 2.86, G 1.88, N 2.51, H 1.82, W 1.59, K 2.05, L 2.18, I 1.8, M 2.45, D 3.69, C 1.68, A 2.66, Y 1.71, Q 2.52, P 2.1
N6: Q 2.72, F 2.12, H 2.04, A 2.69, G 2.38, M 2.34, C 1.62, R 2.04, K 1.87, P 3.12, W 2.34, Y 1.68, S 2.66, V 2.16, I 1.89, D 3.5, E 3.22, T 3.1, L 1.83
S3: E 3.06, Y 1.88, T 2.4, P 2.57, F 1.63, V 3.26, R 1.28, N 2.37, H 1.97, I 1.67, L 2.16, K 1.99, A 2.3, Q 1.91, C 2.08, D 3.57, G 2.47, W 2.09, M 2.1

Variants of: B2
Experiment: as above
Details: c terminus: a fixed tail appended

Protein stability index: each site, then its substitutions
I18: C 3.93, S 3.06, Q 3.42, D 3.71, F 2.35, R 3.32, H 3.6, V 1.99, T 2.44
C8: E 2.73, D 3.19, V 1.64, Y 2.12, Q 2.96, I 1.9, G 2.59, L 2.46, N 2.43, W 1.86
G22: L 1.81, R 2.43, W 2.06, V 1.59, F 2.04, A 2.2, Q 2.17, C 3.79, T 2.19, Y 2.24, K 2.78
I23: W 1.77, D 2.71, F 2.1
K11: L 2.23, V 1.5, C 3.26, Y 1.86, M 1.55, G 3.03, P 2.4, A 1.82, E 2.39, H 2.1
C9: R 2.76, N 2.77, V 2.67, S 3.81, K 2.85, W 2.16, H 2.86
Y5: D 3.14, N 3.3, S 2.84, C 3.04, K 3.53, G 3.53
D10: Y 2.88, F 2.44, E 2.41, P 2.36, R 2.4, A 1.71, Q 2.29, N 2.41
V14: A 2.41, P 3.12, T 2.93
D2: P 2.16, L 3.26, I 2.87, M 1.92, K 2.69
D19: L 2.14, S 1.78, A 2.04, N 1.91, R 2.43, P 2.33
Q16: W 1.61, H 2.48, A 1.47, N 2.42, C 2.4
D24: V 2.47, L 2.79, T 1.94, Q 2.47, P 2, E 2.46, F 1.89
H17: N 2.32, V 2.8, C 3.54, G 2.72, R 1.95, T 1.64, E 2.89, L 1.98
G4: N 2.05, L 1.64, M 1.74, D 2.61, Q 2.2, K 2.16, W 2.56, C 2.53, A 2.04, S 2.38, P 2.69
C12: E 3.63, T 2.74, N 3.05, D 3.54, W 2.32, L 1.7, K 3.46, S 3.01, G 2.67
H1: D 2.83, N 2.73, Q 2.24, I 1.98, L 2.47, C 2.1, P 1.86
S13: T 2.72, E 2.55, Y 1.93, C 3.19, K 2.43, L 2.18, V 1.85, G 3.48, F 1.8, D 2.18, M 2.45
D3: C 2.06, M 1.69, R 2.02, I 1.63, F 1.53, Q 2.43, W 1.88, G 2.47, K 1.88, A 2.13, Y 1.91, L 1.01
C20: D 2.58, T 2.22, S 1.51, I 2.08, Q 2.02, G 2.19, F 1.28, P 2.31, L 1.86
M6: E 2.79, N 3.14, W 2, L 2.59, S 2.91, Q 2.46, V 3.1
I7: T 2.93, A 3.2, M 2.29, P 2.71, L 2.06, G 3.82, Y 2.77, W 3.09
M21: D 3.5, N 2.73, T 2.91, A 2.94, C 2.78, S 2.41, G 2.66, W 2.03
W15: L 3.16, M 3.18, F 3.11, P 3.6, V 3.59, G 4.18, Q 3.63, E 4.13, I 2.43, D 4.24
